Consider one substance from article PMC2712996.

This assay deals with Rabbit skeletal muscle actin (F-actin) (rabbit) (UniProt P68135). The experiment in a line: co-sedimentation.

The substance “GST-Cno (aa 1,560–2,051) (domain or fragment)” gave a percent pelleted with F-actin of 41%.
